Reference: the supplement of paper PMC7125110
± gives the standard error. This sample holds only a part of the variants without activity.

B1: glmS ribozyme (parent)
chain: AUAAAAGCGCCAGAACUACAGAAAUGUAGUUGACGAGGAGGAGGUUUAUCGAAUUUUCGGCGGAUGCCUCCAAA

Key:
glucosamine-6-phosphate [1] = variants of: B1; test: self-cleavage kobs at 640 uM GlcN6P; higher = faster cleavage; RNA array; settings: with glucosamine-6-phosphate
Method in brief: (§1)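 Barcoded ribozyme variants on sequenced MiSeq chips were transcribed in situ by E. coli RNA polymerase and followed at 37 °C through a hybridised Cy3 probe. Glucosamine-6-phosphate at 40 μM to 10 mM in HEPES/KCl/Mg(OAc)2 buffer was flowed in, and tiles were imaged over ~14 h. Signals were normalised to baseline and to non-cleaving reference variants, and per-tile medians were fit to one- or two-exponential decays to give kobs. Weighted Michaelis–Menten fits across concentrations gave kcat and KM.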

glucosamine-6-phosphate [2] = variants of: B1; test: self-cleavage kobs at 2500 uM GlcN6P; higher = faster cleavage; RNA array; settings: with glucosamine-6-phosphate
Method in brief: as §1

Row | Variant | self-cleavage kobs at 640 uM GlcN6P (glucosamine-6-phosphate [1]) [s⁻¹] | self-cleavage kobs at 2500 uM GlcN6P (glucosamine-6-phosphate [2]) [s⁻¹]
1 | AUAAAGGCGCCAGAAAUACAGAAAUGUAGUUGACGAGGAGGAGGUUUAUCGCAUUUUCGGCGGAUGCCUCCAAA | < 1e-05 | < 1e-05
2 | AUAAAAGCGCCAGAACUAAAGAAAUGUAGUUGUCGAGGAGGAGGUUUAUCGAAUUUUCGGCGGAUGCCUCCAAA | 4.59e-05 ± 2.2e-05 | 0.000114 ± 2.6e-05
3 | AUAAAAGUGGCAGAACUACAGAAAUGUAGUUGACGAGGAGGAGGUUUAUCGAAUUUUCGGCGGAUGGCUCCAAA | 0.000675 ± 0.00032 | 
4 | AUAAAAGAGCCAGAACUACAGAAAUGUAGUUGACGGGGAGGUGGUUUAUCGAGUUUUCGGCGGAUGCCUCCAAA | < 1e-05 | < 1e-05
5 | AUAAAAGCGCCAGAACUACAGAAAUGUAGUUCACGAGGAGGUGGUUUAUCGAGUUUACGGCGGGUGCCUCCAAA | < 1e-05 | < 1e-05
6 | AUAAAGGCGCCAGAACUACAGAAAUGUAGUCGACGAGGAGGAGGUUUAUCGAAUUUUCAGCGGAUGCCUCCAAA | < 1e-05 | 
7 | AUAAAAGCGCCACAACUACAGAAAUGUAGUUGACGAGGAGGACGUUUUUCGAAUUUUCGGCGGAUGCCUCCAAA | < 1e-05 | < 1e-05
8 | AUAAAAGCGCCAGAACUACAGAAAUGUAGCUGACGAGGAGGAGGUUUAUCGAUUUUGCGGCGGCUGCCGCCAAA | 0.000129 ± 3.2e-05 | 0.000128 ± 5.2e-05
9 | AUAAAAGCUUCAGAACUACAGAAAUGUAGUUGAGGAGGAGGAGGUUUAUCGAUUUUUCGGCGCAAGCCUCCAAA | < 1e-05 | 
10 | AUAAAAGCGCCCGAACUACAGAAAUGUAGUUGACGAGGAAGAGGUUUAUCGAAUUUUCGGCGGAAGCCUCCAAA | 9.15e-05 ± 1.3e-05 | 0.000293 ± 5.4e-05
11 | AUAAAAGCGCCAGACCUACAGAAAUGUAGUUGUCGAGGAAGAGGUUUAUCGAAUUUUCGGCGGAUGCCUCCAAA | < 1e-05 | 
12 | AUAAAAGCGCCACAACUACAGAAAUGUAGUUGACGAGGAGGAGGUUUGCCGAAUUUUCGGCGGAUGCCUCCAAA | < 1e-05 | 
13 | AUAAAAGCGCCAGCACUACAGAAAUGUAGUUGACGAGGGGGAGGUUUAUCGAAUUUUCGGCGGAUGCCUUCAAA | 0.000886 ± 0.00029 | 
14 | AUAAAAGCGCCGGAACUACAGAAAUGUAGUUGCCGAGGAGGAGGUUUAUAGAAUUUUCGGCGGAUGCGUCCAAA | 0.000144 ± 6.5e-05 | 0.00016 ± 6.5e-05
15 | AUAAAAGCGCCAAAACUACAGAAAUGUAGUUGACGAAGAGGAGGUUUAUCGAAUUUUCGGCGGAUCCCUCCAAA | < 1e-05 | 
16 | AUAAAAGCGCCAGAACUACAGAAAUGUAGUUGACGAGGAGGAGGUUUAACGAAUCUUCGGCGGAUGCCUCGAAA | < 1e-05 | 
17 | AUAAAAGCGCCAGAACUACAGAAAUGUAGUUGACGAGGAGGAGGUUUAACGAAUUUUCUGCGGAUGCCUCGAAA | < 1e-05 | 
18 | AUAAAAGCGCAUGAACUACAGAAAUGUAGUUGACGCGGAGGAGGUUUCUCGAAUUUUCGUCAGAUGCCUCCAAA | < 1e-05 | < 1e-05
19 | AUAAAAGCGCCAGAACUACAGAAAUGUAGUGGACGAGGAGGAGGUUUAUCGAAUUUUCGUCGGAAGCCUCCAAA | < 1e-05 | 
20 | AUAAAAGCGCCAGAACUACAGAAAUGUAGUUGACCAGAAGGAGGUUUAUCGAAUUUUCGGCGGAUGCCUCCAAA | < 1e-05 | < 1e-05
21 | AUAAAAGCGCCCGAACUACAGAAAUGUAGUUGACGAGGAGGAGGUUUAUCGAAUUGUCGGCGGAUUCCUCCAAA | 0.000122 ± 2e-05 | 0.000363 ± 8e-05
22 | AUAAAAGCGCCAGAACUACAGAAAUGUAGUUGACGAGGAGGAGGUUUAUAUAAUCUUCGGCGGAUGCCUCCAAA | < 1e-05 | < 1e-05
23 | AUAAAAGCAGCAGAACUACAGAAAUGUAUUUGACGAGGAGGAGGUUUAUCGAAUUUUCGGCAGAUGCCUCCAAA | < 1e-05 | 
24 | AUAAAAGUGCCAGAACUACAGAAAUGUAGUUGACGCGGAGGAGGUUUGCCGAAUUUUCGGCGGAUGCCUCCAAA | < 1e-05 | < 1e-05
